± gives the uncertainty stated by the source.

A short description of the data set: amyloid nucleation score (Sup35N fusion, yeast selection) (log enrichment); library NNK1; higher = more nucleation; inactive = no reads after selection. In outline:
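DiMSum was used to calculate nucleation scores as log enrichment of output over input reads, centred on the mode score of non-aggregating sequences. Sequences with fewer than 100 input reads were not scored. Input and output came from Illumina sequencing of plasmid inserts in psi-negative yeast expressing peptides of 20 random codons fused to Sup35N, induced 24 hours with 100 μM copper sulfate and then grown 7 days at 30°C on medium lacking adenine and uracil.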
In the case of FTYRGYSDQLMVSLLSLLSE, the amyloid nucleation score was 1.68 ± 0.48.

Consider VWGQRGSGSNSCLEW, for which the amyloid nucleation score amounted to 0.15 ± 0.68. Substance MRPPGNPGWWVRRKARWDPG had an amyloid nucleation score of -0.506 ± 1. As for MKFFRRFYREYF, the amyloid nucleation score is -0.431 ± 1. VLCNLTVS: the amyloid nucleation score was -0.907 ± 1.8.

As for VFSFYNRNLLILNISLYGYC, the amyloid nucleation score came out at 5.89 ± 0.085.

As to LNNYNGVTVGWGNSWYLYLG, the amyloid nucleation score is -0.116 ± 0.45. Substance VECLAAVNYGEVHDPGVMDR yielded an amyloid nucleation score of 0.417 ± 0.71.

For the substance DLKALCCDRMKVLGFVRSPG, the amyloid nucleation score was 1.18 ± 0.42.

Consider MFRCFSDTKSNRTFCFMHTC, for which the amyloid nucleation score is -0.143 ± 0.56. FAQMWSLALRISVRNVISQF had an amyloid nucleation score of 5.954 ± 0.047.

In the case of CIFSRNQGLIHRLEDNGH, the amyloid nucleation score is 0.685 ± 0.33.

Substance LLFYLRSLKMYVLYSGHTMS returned an amyloid nucleation score of 1.25 ± 0.45. The same measure for FGNRELFLYFVCVKRDILVG: -1.23 ± 0.64; for ILWLVRSGVSYQQGGDSTPV: 0.919 ± 0.28. The same measure for MRGFHSQRHSIAECVAIQKG: 0.359 ± 0.37. Then AGMDVDSLYNRYGYGLEVG, with -0.512 ± 0.81; and YYPGSGFH, with -0.531 ± 0.65; and FWPFHDDLDVVSAFCYIRIL, with -0.707 ± 0.82. For CCCISDHESNCDSDQSRLGF, the amyloid nucleation score is 0.585 ± 0.36. Take NTRYYFENNMR: the amyloid nucleation score was -0.599 ± 0.4. SWLDLNLIDHQAFAFSSFGQ registered an amyloid nucleation score of 0.183 ± 0.3. Consider TWNKCKVADSLFMTRIIMVL, for which the amyloid nucleation score is 0.305 ± 0.41.

SRNVVLPL came in with an amyloid nucleation score of 0.195 ± 0.43.

In turn, EWTSAWW had an amyloid nucleation score of -0.355 ± 0.36.

PWNLIISSYASYYTCKVLVS displayed an amyloid nucleation score of -0.563 ± 1.1. On to CLCARML, for which the amyloid nucleation score turned out to be 0.542 ± 0.67. In the case of RIPASFRITYVDSIKCKPF, the amyloid nucleation score came out at 4.15 ± 0.088. For the substance HLYLFSGFRAVSESEVRGAK, the amyloid nucleation score was 2.6 ± 0.22. For VKRGHNGGSAITISLDLYLF, the amyloid nucleation score amounted to 5.11 ± 0.069. On to RYLDSLYKPRYYYQMVAIYG, for which the amyloid nucleation score came out at 0.004 ± 0.41. The same measure for NKRTLLVVY: -1.19 ± 0.81. In turn, QTRSPQFKPAAYRVFLVDLC showed an amyloid nucleation score of -0.159 ± 0.77. As to FRGYHSSMSGNGDDNEKFGG, the amyloid nucleation score came out at 0.24 ± 0.71.

Regarding MRLWLIWYISVMLTQNPRLW, the amyloid nucleation score turned out to be 1.22 ± 0.46. As to ELSMCYYWRKSYIQSLGIRW, the amyloid nucleation score was 0.733 ± 0.27. The same measure for DKLLPHFK: “inactive”; for WVCSNNMHMSIANVGLDCNL: 0.178 ± 0.33.

For KTRFLKYDNLSWTDKSNWVL, the amyloid nucleation score entry was “inactive”. The same measure for KLCRFCNRVCYCQ: -0.691 ± 1; for SCSPGTYSWFNWWYKSPGVE: -0.021 ± 0.65; for LLPRGESHVKLKDRGSRMPW: 0.921 ± 0.5. The same measure for SLAGFCMQPRTLLV: 0.86 ± 0.83. The substance SGRYMWQEISLMFCLSDVSP showed an amyloid nucleation score of 0.836 ± 0.58. With SCLYQGCYLNCVIDIMGCGL, the amyloid nucleation score was found to be 5.83 ± 0.089. For the substance SFCMMLVSLVFSSKKISHHA, the amyloid nucleation score stood at 0.877 ± 0.49. Regarding YDRVYLNQFVRTESVHFFCL, the amyloid nucleation score turned out to be 6.341 ± 0.056.

With TSKGCQ, the amyloid nucleation score result was “inactive”. Take PTVLTVLFNRPFRSCN: the amyloid nucleation score is -0.178 ± 0.61.

In the case of LSCYLYALVKGLGLRVGHIK, the amyloid nucleation score came out at 0.177 ± 0.55. In turn, LYETMTCFWMRLWSFCGSPA showed an amyloid nucleation score of -0.033 ± 0.69. Then GKSEVLTFGEGAHVGRSRFY, with 0.367 ± 0.46; and SIIYQVRRLCGSYVSILGSQ, with 0.251 ± 0.69. KQNNGFGWEYEAGGLHRKGA: the amyloid nucleation score was -0.989 ± 2.7. FYGMDLSVSRFF had an amyloid nucleation score of 0.031 ± 0.47. The same measure for TSGLENVSIVNGLPGLDSLV: 0.11 ± 0.99.
